# Assay results as given in paper PMC7901269 (Cell, 2021).
# B1: mAb 88 (Fab, V domains shown)
# VH: QLQLQESGPGLVKPSQTLSLTCTVSGGSISSGSYNWTWIRQPAGKGLEWIGRIYNSGSTNYNPSLKSRVTISVDTSKNQLSLKVRSVTAADTAVYYCARHCSGGTCYPKYYYGMDVWGQGTTVTVSS
# VL: QSALTQPPSVSEAPRQRVTISCSGSSSNIGNNAVNWYQQFPGKAPKLLIYYDDLLPSGVSDRFSGSKSGTSASLAISGVQSEDEADYYCAAWDDSLNVVVFGGGTKLTVL
# B2: mAb 150 (Fab, V domains shown)
# VH: QVQLVESGGGLIQPGGSLRLSCAASGVTVSSNYMSWVRQAPGKGLEWVSIIYSGGTTYYADSVKGRFTISRDSSMNTLYLQMNSLRAEDTAVYYCARDLMVYGIDVWGQGTTVTVSS
# VL: EIVMTQSPSSLSASVGDRVTITCRASQGISSYLAWYQQKPGKAPKLLIYAASTLQSGVPSRFSGSGSGTDFTLTISSLQPEDFATYYCQQLDSYPPGYTFGQGTKVDIK
# notes: source: from Dejnirattisai et al., 2021; human mAbs expressed in HEK293T cells
# B3: chimera 253H/165L (Fab, V domains shown)
# VH: not shown
# VL: DIVMTQSPGTLSLSPGERATLSCRASQSVRSSYLAWYQQKPGQAPRLLIYGASRRGTGIPDRFSGSGSGTDFTLTISRLEPEDFAVYYCQQYGSSPWTFGQGTKVEIK
# notes: also called 253-165; 353/165; source: from Dejnirattisai et al., 2021; human mAbs expressed in HEK293T cells
# Molecular target: His-tagged SARS-CoV-2 RBD (native RBD) (SARS-CoV-2, Wuhan (native RBD), UniProt P0DTC2)
# Assay: BLI
# Settings: both partners purified
row,Binder,Kd [nM]
1,B1,0.64
2,B2,0.19
3,B3,0.73
